The target of one test is T1, LCAT (Homo sapiens, UniProt P04180).
T1 sequence (P04180 25-440): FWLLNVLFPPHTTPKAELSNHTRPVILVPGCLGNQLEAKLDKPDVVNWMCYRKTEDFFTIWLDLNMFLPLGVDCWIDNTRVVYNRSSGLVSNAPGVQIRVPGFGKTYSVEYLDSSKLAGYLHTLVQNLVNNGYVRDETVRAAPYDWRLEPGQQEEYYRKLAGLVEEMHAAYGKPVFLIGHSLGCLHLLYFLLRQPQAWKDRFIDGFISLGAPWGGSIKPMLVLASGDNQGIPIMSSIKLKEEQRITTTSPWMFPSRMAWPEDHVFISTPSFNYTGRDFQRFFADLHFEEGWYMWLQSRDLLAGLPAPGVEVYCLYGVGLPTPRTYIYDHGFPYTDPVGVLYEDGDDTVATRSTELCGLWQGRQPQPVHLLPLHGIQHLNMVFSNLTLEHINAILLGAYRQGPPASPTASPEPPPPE
The experiment in a line: in vitro LCAT activation. As to conditions: in the presence of lipids; % of the activity of native apoA-I. The test is classed as biochemical. The text has this: ESP24218 (SEQ ID NO:1), the peptide component of the peptide/phospholipid complex, is a 22 amino acid peptide having a helical structure and amphipathic properties designed based on the helical repeats of apoA-I. In the presence of lipids, this peptide approaches 100% of the activity of native apoA-I in in vitro LCAT activation. The peptide can be prepared by chemical synthesis using any technique known to those of skill in the art. The peptide can be prepared by the synthetic techniques described in U.S. Pat. No. 6,004,925, incorporated herein by reference in its entirety for all purposes. Typically, ESP24218 (SEQ ID NO:1) is produced by a stepwise chemical synthesis on a solid support. In preferable embodiments, all amino acids in the peptide are natural L-α-amino acids in configuration. Generally, the amino and carboxyl termini of the peptide are free. The amino acid sequence of ESP24218 (SEQ ID NO:1) is shown in FIG. 1, which is as follows: H-[…]OH. The phospholipid can be obtained from any source known to those of skill in the art. […]

Test [1] concerns apo E expression in HepG2 cells. The conditions noted are these: cited from earlier work.

Take “H-Pro-Val-Leu-Asp-Leu-Phe-Arg-Glu-Leu-Leu-Asn-Glu-Leu-Leu-Glu-Ala-Leu-Lys-Gln-Lys-Leu-Lys-OH [ESP24218]”: the “activity in in vitro LCAT activation relative to native apoA-I” value in the test with LCAT is reported as approximately 100%.

For Thyroid hormone, the “increase of expression of apo E” value in test [1] was “three”.
